Test results: US10196657B2, “Methods of producing 7-carbon chemicals via methyl-ester shielded carbon chain elongation” (INVISTA North America S.á r.l., priority 2012, dated 2019)

B1: SEQ ID NO 13: Vibrio fluvialis ω-transaminase, Genbank Accession No. AEA39183.1 (protein, listed as Vibrio fluvialis)
chain: MNKPQSWEARAETYSLYGFTDMPSLHQRGTVVVTHGEGPYIVDVNGRRYLDANSGLWNMVAGFDHKGLIDAAKAQYERFPGYHAFFGRMSDQTVMLSEKLVEVSPFDSGRVFYTNSGSEANDTMVKMLWFLHAAEGKPQKRKILTRWNAYHGVTAVSASMTGKPYNSVFGLPLPGFVHLTCPHYWRYGEEGETEEQFVARLARELEETIQREGADTIAGFFAEPVMGAGGVIPPAKGYFQAILPILRKYDIPVISDEVICGFGRTGNTWGCVTYDFTPDAIISSKNLTAGFFPMGAVILGPELSKRLETAIEAIEEFPHGFTASGHPVGCAIALKAIDVVMNEGLAENVRRLAPRFEERLKHIAERPNIGEYRGIGFMWALEAVKDKASKTPFDGNLSVSERIANTCTDLGLICRPLGQSVVLCPPFILTEAQMDEMFDKLEKALDKVFAEVA
B2: SEQ ID NO 3: Mycobacterium smegmatis carboxylate reductase, Genbank Accession No. ABK71854.1 (protein, listed as Mycobacterium smegmatis)
chain: MTSDVHDATDGVTETALDDEQSTRRIAELYATDPEFAAAAPLPAVVDAAHKPGLRLAEILQTLFTGYGDRPALGYRARELATDEGGRTVTRLLPRFDTLTYAQVWSRVQAVAAALRHNFAQPIYPGDAVATIGFASPDYLTLDLVCAYLGLVSVPLQHNAPVSRLAPILAEVEPRILTVSAEYLDLAVESVRDVNSVSQLVVFDHHPEVDDHRDALARAREQLAGKGIAVTTLDAIADEGAGLPAEPIYTADHDQRLAMILYTSGSTGAPKGAMYTEAMVARLWTMSFITGDPTPVINVNFMPLNHLGGRIPISTAVQNGGTSYFVPESDMSTLFEDLALVRPTELGLVPRVADMLYQHHLATVDRLVTQGADELTAEKQAGAELREQVLGGRVITGFVSTAPLAAEMRAFLDITLGAHIVDGYGLTETGAVTRDGVIVRPPVIDYKLIDVPELGYFSTDKPYPRGELLVRSQTLTPGYYKRPEVTASVFDRDGYYHTGDVMAETAPDHLVYVDRRNNVLKLAQGEFVAVANLEAVFSGAALVRQIFVYGNSERSFLLAVVVPTPEALEQYDPAALKAALADSLQRTARDAELQSYEVPADFIVETEPFSAANGLLSGVGKLLRPNLKDRYGQRLEQMYADIAATQANQLRELRRAAATQPVIDTLTQAAATILGTGSEVASDAHFTDLGGDSLSALTLSNLLSDFFGFEVPVGTIVNPATNLAQLAQHIEAQRTAGDRRPSFTTVHGADATEIRASELTLDKFIDAETLRAAPGLPKVTTEPRTVLLSGANGWLGRFLTLQWLERLAPVGGTLITIVRGRDDAAARARLTQAYDTDPELSRRFAELADRHLRVVAGDIGDPNLGLTPEIWHRLAAEVDLVVHPAALVNHVLPYRQLFGPNVVGTAEVIKLALTERIKPVTYLSTVSVAMGIPDFEEDGDIRTVSPVRPLDGGYANGYGNSKWAGEVLLREAHDLCGLPVATFRSDMILAHPRYRGQVNVPDMFTRLLLSLLITGVAPRSFYIGDGERPRAHYPGLTVDFVAEAVTTLGAQQREGYVSYDVMNPHDDGISLDVFVDWLIRAGHPIDRVDDYDDWVRRFETALTALPEKRRAQTVLPLLHAFRAPQAPLRGAPEPTEVFHAAVRTAKVGPGDIPHLDEALIDKYIRDLREFGLI
B3: SEQ ID NO 10: Pseudomonas syringae ω-transaminase, Genbank Accession No. AAY39893.1 (protein, listed as Pseudomonas syringae)
chain: MSANNPQTLEWQALSSEHHLAPFSDYKQLKEKGPRIITRAEGVYLWDSEGNKILDGMSGLWCVAIGYGREELADAASKQMRELPYYNLFFQTAHPPVLELAKAISDIAPEGMNHVFFTGSGSEGNDTMLRMVRHYWALKGQPNKKTIISRVNGYHGSTVAGASLGGMTYMHEQGDLPIPGVVHIPQPYWFGEGGDMTPDEFGIWAAEQLEKKILELGVENVGAFIAEPIQGAGGVIVPPDSYWPKIKEILSRYDILFAADEVICGFGRTSEWFGSDFYGLRPDMMTIAKGLTSGYVPMGGLIVRDEIVAVLNEGGDFNHGFTYSGHPVAAAVALENIRILREEKIVERVRSETAPYLQKRLRELSDHPLVGEVRGVGLLGAIELVKDKTTRERYTDKGAGMICRTFCFDNGLIMRAVGDTMIIAPPLVISFAQIDELVEKARTCLDLTLAVLQG
B4: SEQ ID NO 6: Mycobacterium massiliense carboxylate reductase, Genbank Accession No. EIV11143.1 (protein)
chain: MTNETNPQQEQLSRRIESLRESDPQFRAAQPDPAVAEQVLRPGLHLSEAIAALMTGYAERPALGERARELVIDQDGRTTLRLLPRFDTTTYGELWSRTTSVAAAWHHDATHPVKAGDLVATLGFTSIDYTVLDLAIMILGGVAVPLQTSAPASQWTTILAEAEPNTLAVSIELIGAAMESVRATPSIKQVVVFDYTPEVDDQREAFEAASTQLAGTGIALETLDAVIARGAALPAAPLYAPSAGDDPLALLIYTSGSTGAPKGAMHSENIVRRWWIREDVMAGTENLPMIGLNFMPMSHIMGRGTLTSTLSTGGTGYFAASSDMSTLFEDMELIRPTALALVPRVCDMVFQRFQTEVDRRLASGDTASAEAVAAEVKADIRDNLFGGRVSAVMVGSAPLSEELGEFIESCFELNLTDGYGSTEAGMVFRDGIVQRPPVIDYKLVDVPELGYFSTDKPHPRGELLLKTDGMFLGYYKRPEVTASVFDADGFYMTGDIVAELAHDNIEIIDRRNNVLKLSQGEFVAVATLEAEYANSPVVHQIYVYGSSERSYLLAVVVPTPEAVAAAKGDAAALKTTIADSLQDIAKEIQLQSYEVPRDFIIEPQPFTQGNGLLTGIAKLARPNLKAHYGPRLEQMYAEIAEQQAAELRALHGVDPDKPALETVLKAAQALLGVSSAELAADAHFTDLGGDSLSALSFSDLLRDIFAVEVPVGVIVSAANDLGGVAKFVDEQRHSGGTRPTAETVHGAGHTEIRAADLTLDKFIDEATLHAAPSLPKAAGIPHTVLLTGSNGYLGHYLALEWLERLDKTDGKLIVIVRGKNAEAAYGRLEEAFDTGDTELLAHFRSLADKHLEVLAGDIGDPNLGLDADTWQRLADTVDVIVHPAALVNHVLPYNQLFGPNVVGTAEIIKLAITTKIKPVTYLSTVAVAAYVDPTTFDEESDIRLISAVRPIDDGYANGYGNAKWAGEVLLREAHDLCGLPVAVFRSDMILAHSRYTGQLNVPDQFTRLILSLIATGIAPGSFYQAQTTGERPLAHYDGLPGDFTAEAITTLGTQVPEGSEGFVTYDCVNPHADGISLDNFVDWLIEAGYPIARIDNYTEWFTRFDTAIRGLSEKQKQHSLLPLLHAFEQPSAAENHGVVPAKRFQHAVQAAGIGPVGQDGTTDIPHLSRRLIVKYAKDLEQLGLL
modifications: Mycobacterium massiliense

Key:
Format in all cases: biochemical
[1] = ω-transaminase activity assay, reverse direction (7-aminoheptanoate to pimelate semialdehyde); details: cell free extract, 10 mM 7-aminoheptanoate, 10 mM pyruvate, 25° C., 4 h; against empty vector control; FIG. 15
Procedure: (§1) A sequence encoding an N-terminal His-tag was added to the genes from Chromobacterium violaceum, Pseudomonas syringae, Rhodobacter sphaeroides, and Vibrio Fluvialis encoding the ω-transaminases of SEQ ID NOs: 8, 10, 11 and 13, respectively (see FIGS. 7F and 7G) such that N-terminal HIS tagged ω-transaminases could be produced. Each of the resulting modified genes was cloned into a pET21a expression vector under control of the T7 promoter and each expression vector was transformed into a BL21[DE3] E. coli host. The resulting recombinant E. coli strains were cultivated at 37° C. in a 250 mL shake flask culture containing 50 mL LB media and antibiotic selection pressure, with shaking at 230 rpm. Each culture was induced overnight at 16° C. using 1 mM IPTG.
(§2) The pellet from each induced shake flask culture was harvested via centrifugation. Each pellet was resuspended and lysed via sonication. The cell debris was separated from the supernatant via centrifugation and the cell free extract was used immediately in enzyme activity assays.
Enzyme activity assays in the reverse direction (i.e., 7-aminoheptanoate to pimelate semialdehyde) were performed in a buffer composed of a final concentration of 50 mM HEPES buffer (pH=7.5), 10 mM 7-aminoheptanoate, 10 mM pyruvate and 100 μM pyridoxyl 5′ phosphate. Each enzyme activity assay reaction was initiated by adding cell free extract of the ω-transaminase gene product or the empty vector control to the assay buffer containing the 7-aminoheptanoate and incubated at 25° C. for 4 h, with shaking at 250 rpm. The formation of L-alanine from pyruvate was quantified via RP-HPLC.

[2] = ω-transaminase activity assay, forward direction (pimelate semialdehyde to 7-aminoheptanoate); details: for acceptance of pimelate semialdehyde as substrate (formation of pyruvate from L-alanine, RP-HPLC): cell free extract, 10 mM pimelate semialdehyde, 10 mM L-alanine, 25° C., 4 h, against empty vector control, FIG. 16; for acceptance of pimelate semialdehyde as substrate, synthesizing 7-aminoheptanoate (conclusion from confirmed reversibility): concluded from reversibility of the ω-transaminase activity
Procedure: as §1, §2
Enzyme activity in the forward direction (i.e., pimelate semialdehyde to 7-aminoheptanoate) was confirmed for the transaminases of SEQ ID NO 10, SEQ ID NO 11 and SEQ ID NO 13. Enzyme activity assays were performed in a buffer composed of a final concentration of 50 mM HEPES buffer (pH=7.5), 10 mM pimelate semialdehyde, 10 mM L-alanine and 100 μM pyridoxyl 5′ phosphate. Each enzyme activity assay reaction was initiated by adding a cell free extract of the ω-transaminase gene product or the empty vector control to the assay buffer containing the pimelate semialdehyde and incubated at 25° C. for 4 h, with shaking at 250 rpm. The formation of pyruvate was quantified via RP-HPLC.

[3] = Carboxylate reductase activity assay, N7-acetyl-7-aminoheptanoate to N7-acetyl-7-aminoheptanal; details: purified enzyme enhanced by sfp gene product, 2 mM substrate, room temperature, 20 min; against empty vector control; FIG. 12
Procedure: The activity of each of the N-terminal His-tagged carboxylate reductases of SEQ ID NOs: 3, 6, and 7 (see Examples 4, and FIGS. 7B, 7E, and 7F) for converting N7-acetyl-7-aminoheptanoate to N7-acetyl-7-aminoheptanal was assayed in triplicate in a buffer composed of a final concentration of 50 mM HEPES buffer (pH=7.5), 2 mM N7-acetyl-7-aminoheptanoate, 10 mM MgCl2, 1 mM ATP, and 1 mM NADPH. The assays were initiated by adding purified carboxylate reductase and phosphopantetheine transferase or the empty vector control to the assay buffer containing the N7-acetyl-7-aminoheptanoate then incubated at room temperature for 20 min. The consumption of NADPH was monitored by absorbance at 340 nm.

[4] = ω-transaminase activity assay, 7-aminoheptanol to 7-oxoheptanol
Procedure: A nucleotide sequence encoding an N-terminal His-tag was added to the Chromobacterium violaceum, Pseudomonas syringae and Rhodobacter sphaeroides genes encoding the ω-transaminases of SEQ ID NOs: 8, 10 and 11, respectively (see FIGS. 7F and 7G) such that N-terminal HIS tagged ω-transaminases could be produced. The modified genes were cloned into a pET21a expression vector under the T7 promoter. Each expression vector was transformed into a BL21[DE3] E. coli host. Each resulting recombinant E. coli strain were cultivated at 37° C. in a 250 mL shake flask culture containing 50 mL LB media and antibiotic selection pressure, with shaking at 230 rpm. Each culture was induced overnight at 16° C. using 1 mM IPTG.
as §2
Enzyme activity assays in the reverse direction (i.e., 7-aminoheptanol to 7-oxoheptanol) were performed in a buffer composed of a final concentration of 50 mM HEPES buffer (pH=7.5), 10 mM 7-aminoheptanol, 10 mM pyruvate, and 100 μM pyridoxyl 5′ phosphate. Each enzyme activity assay reaction was initiated by adding cell free extract of the ω-transaminase gene product or the empty vector control to the assay buffer containing the 7-aminoheptanol and then incubated at 25° C. for 4 h, with shaking at 250 rpm. The formation of L-alanine was quantified via RP-HPLC.

| Molecule | acceptance of 7-aminoheptanoate as substrate (formation of L-alanine from pyruvate, RP-HPLC) [1] | acceptance of pimelate semialdehyde as substrate (formation of pyruvate from L-alanine, RP-HPLC) [2] | acceptance of pimelate semialdehyde as substrate, synthesizing 7-aminoheptanoate (conclusion from confirmed reversibility) [2] | acceptance of N7-acetyl-7-aminoheptanoate as substrate (NADPH consumption, absorbance at 340 nm) [3] | acceptance of 7-aminoheptanol as substrate (formation of L-alanine, RP-HPLC) ([4]; cell free extract, 10 mM 7-aminoheptanol, 10 mM pyruvate, 25° C., 4 h, against empty vector control, FIG. 19) | acceptance of 7-oxoheptanol as substrate, forming 7-aminoheptanol (concluded from reversibility) ([4]; concluded from reversibility of the ω-transaminase activity (Example 2)) |
| --- | --- | --- | --- | --- | --- | --- |
| B1 | accepted 7-aminoheptanote as substrate | accepted pimelate semialdehyde as substrate | accepted pimelate semialdehyde as substrate | – | – | – |
| B2 | – | – | – | accepted N7-acetyl-7-aminoheptanoate as substrate | – | – |
| B3 | accepted 7-aminoheptanote as substrate | accepted pimelate semialdehyde as substrate | accepted pimelate semialdehyde as substrate | – | accepted 7-aminoheptanol as substrate | accept 7-oxoheptanol as substrate |
| B4 | – | – | – | accepted N7-acetyl-7-aminoheptanoate as substrate | – | – |
